Data on one substance can be found in paper PMC117134.

The test deals with HIV-1 reverse transcriptase p66 subunit, wild type (HIV-1). In words: glycerol gradient ultracentrifugation.

The stoichiometry N is the number of molecules, sites or subunits per partner or assembly. For “HIV-1 reverse transcriptase p66 subunit, wild type (enzyme)”, the stoichiometry N is 2.
